3 molecules from publication PMC11863153, “Mechanistic Insights Into Oxidative Response of Heat Shock Factor 1 Condensates” (JACS Au, 2025) can be followed below.

“And” between values parts separate entries of the source, which are not always exact repeats. Equal values may be shown once.

Data set [1] deals with T1, Heat shock factor 1 (Hsf1) wild-type (human), Q00613.
T1 chain: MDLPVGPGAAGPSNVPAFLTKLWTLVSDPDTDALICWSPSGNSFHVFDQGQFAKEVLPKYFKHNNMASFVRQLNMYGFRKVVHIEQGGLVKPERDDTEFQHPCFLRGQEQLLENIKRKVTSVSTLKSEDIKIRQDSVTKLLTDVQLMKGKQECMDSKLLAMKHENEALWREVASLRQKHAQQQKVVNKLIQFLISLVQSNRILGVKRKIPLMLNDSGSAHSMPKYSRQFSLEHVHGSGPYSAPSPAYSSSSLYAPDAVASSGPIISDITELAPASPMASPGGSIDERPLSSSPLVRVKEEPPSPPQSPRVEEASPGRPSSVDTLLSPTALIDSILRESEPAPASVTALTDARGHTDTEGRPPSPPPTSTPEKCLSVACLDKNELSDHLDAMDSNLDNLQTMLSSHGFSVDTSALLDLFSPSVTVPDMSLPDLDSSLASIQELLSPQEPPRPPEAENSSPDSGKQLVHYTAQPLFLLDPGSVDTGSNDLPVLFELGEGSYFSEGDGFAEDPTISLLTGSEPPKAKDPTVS
In words: SEC-MALS; with 10 mM DTT (+ Reductant); 50 uM injected; 25 mM HEPES/KOH pH 7.2, 150 mM KCl; Bio SEC-5 1000 A column; oligomer size from the median molar mass. The following applies: remark: other sources report otherwise.

Data set [2] addresses T1, Heat shock factor 1 (Hsf1) wild-type …. In words: SEC-MALS; without reductant (oxidative conditions); 50 uM injected; 25 mM HEPES/KOH pH 7.2, 150 mM KCl; Bio SEC-5 1000 A column; oligomer size from the median molar mass. Particulars: remark: other sources report otherwise. Background: SEC sorts molecules by how far they enter the pores of the column.
Data set [3] deals with the molecule itself. The data set is described as above.
Data set [4] concerns the molecule itself. Briefly: SEC; analytical SEC at varying protein concentrations; change of elution volume with decreasing concentration.

B1: Heat shock factor 1 (Hsf1) wild-type, Q00613 1-529 (natural protein)
chain: MDLPVGPGAAGPSNVPAFLTKLWTLVSDPDTDALICWSPSGNSFHVFDQGQFAKEVLPKYFKHNNMASFVRQLNMYGFRKVVHIEQGGLVKPERDDTEFQHPCFLRGQEQLLENIKRKVTSVSTLKSEDIKIRQDSVTKLLTDVQLMKGKQECMDSKLLAMKHENEALWREVASLRQKHAQQQKVVNKLIQFLISLVQSNRILGVKRKIPLMLNDSGSAHSMPKYSRQFSLEHVHGSGPYSAPSPAYSSSSLYAPDAVASSGPIISDITELAPASPMASPGGSIDERPLSSSPLVRVKEEPPSPPQSPRVEEASPGRPSSVDTLLSPTALIDSILRESEPAPASVTALTDARGHTDTEGRPPSPPPTSTPEKCLSVACLDKNELSDHLDAMDSNLDNLQTMLSSHGFSVDTSALLDLFSPSVTVPDMSLPDLDSSLASIQELLSPQEPPRPPEAENSSPDSGKQLVHYTAQPLFLLDPGSVDTGSNDLPVLFELGEGSYFSEGDGFAEDPTISLLTGSEPPKAKDPTVS
A word on the stoichiometry N: it is a count of units in the complex or per binding partner. As to B1, the stoichiometry N was 7 mer in data set [1]; 9 mer and < 16 mer in data set [2].

B2: Hsf1 CS5 mutant (C36S/C103S/C153S/C373S/C378S) (natural protein, human, UniProt Q00613 1-529, looked up)
chain: MDLPVGPGAAGPSNVPAFLTKLWTLVSDPDTDALISWSPSGNSFHVFDQGQFAKEVLPKYFKHNNMASFVRQLNMYGFRKVVHIEQGGLVKPERDDTEFQHPSFLRGQEQLLENIKRKVTSVSTLKSEDIKIRQDSVTKLLTDVQLMKGKQESMDSKLLAMKHENEALWREVASLRQKHAQQQKVVNKLIQFLISLVQSNRILGVKRKIPLMLNDSGSAHSMPKYSRQFSLEHVHGSGPYSAPSPAYSSSSLYAPDAVASSGPIISDITELAPASPMASPGGSIDERPLSSSPLVRVKEEPPSPPQSPRVEEASPGRPSSVDTLLSPTALIDSILRESEPAPASVTALTDARGHTDTEGRPPSPPPTSTPEKSLSVASLDKNELSDHLDAMDSNLDNLQTMLSSHGFSVDTSALLDLFSPSVTVPDMSLPDLDSSLASIQELLSPQEPPRPPEAENSSPDSGKQLVHYTAQPLFLLDPGSVDTGSNDLPVLFELGEGSYFSEGDGFAEDPTISLLTGSEPPKAKDPTVS
notes: Heat shock factor 1 (Hsf1), human, all five cysteines replaced with serine; also called Hsf1 CS mutant; source: E. coli BL21(DE3), purified (Ni-NTA, HRV3C cleavage, HiTrap Q anion exchange, Superdex 200 gel filtration); not shown: GB1, N-terminal, cleaved; His6, N-terminal, cleaved
With B2, the “stoichiometry N” value in data set [3] is about 5 mer.

B3: Hsf1 C153S mutant (natural protein, human, UniProt Q00613 1-529, looked up)
chain: MDLPVGPGAAGPSNVPAFLTKLWTLVSDPDTDALICWSPSGNSFHVFDQGQFAKEVLPKYFKHNNMASFVRQLNMYGFRKVVHIEQGGLVKPERDDTEFQHPCFLRGQEQLLENIKRKVTSVSTLKSEDIKIRQDSVTKLLTDVQLMKGKQESMDSKLLAMKHENEALWREVASLRQKHAQQQKVVNKLIQFLISLVQSNRILGVKRKIPLMLNDSGSAHSMPKYSRQFSLEHVHGSGPYSAPSPAYSSSSLYAPDAVASSGPIISDITELAPASPMASPGGSIDERPLSSSPLVRVKEEPPSPPQSPRVEEASPGRPSSVDTLLSPTALIDSILRESEPAPASVTALTDARGHTDTEGRPPSPPPTSTPEKCLSVACLDKNELSDHLDAMDSNLDNLQTMLSSHGFSVDTSALLDLFSPSVTVPDMSLPDLDSSLASIQELLSPQEPPRPPEAENSSPDSGKQLVHYTAQPLFLLDPGSVDTGSNDLPVLFELGEGSYFSEGDGFAEDPTISLLTGSEPPKAKDPTVS
notes: Heat shock factor 1 (Hsf1), human, C153S in the leucine-zipper domain LZ1-3; source: E. coli BL21(DE3), purified (Ni-NTA, HRV3C cleavage, HiTrap Q anion exchange, Superdex 200 gel filtration); not shown: GB1, N-terminal, cleaved; His6, N-terminal, cleaved
As for B3, the binding result in data set [4] is on record as “binds”.
